According to the supplement of paper PMC10724198:
± gives the standard deviation of the averaged measurements.

System: Saccharomyces cerevisiae
Experiment: protein stability index of tFT-peptide fusion (C-terminal peptide) (PSI (0-1 scale)); higher = more stable (slower turnover)
Conditions: temperature: 30 C
Procedure: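 MPS profiling in S. cerevisiae of the yeast C-terminome library: the last 12 aa of each annotated ORF are fused to the C-terminus of a sfGFP-mCherry timer, after a GGGS linker. Cells are FACS-sorted into 8 mCherry/sfGFP bins and deep-sequenced. PSI runs from 0 (unstable) to 1 (stable); wild type and das1Δ backgrounds, two technical replicates each.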

[1] = genetic background: das1 deletion

Sequence	protein stability index [1]	protein stability index (genetic background: wild type)
NFVMTVFWKIPV [PER33 C-terminal 12 aa]	0.5008 ± 0.0016	0.558 ± 0.075
NGANIFITSALT [YGL176C C-terminal 12 aa]	0.691 ± 0.004	0.684 ± 0.016
NGLKYHRGHSTH [SFP1 C-terminal 12 aa]	0.703 ± 0.029	0.6745 ± 0.0032
NIFYQLLLTVNY [YBR013C C-terminal 12 aa]	0.229 ± 0.0065	0.272 ± 0.02
NIGSPLGAPKKK [MBF1 C-terminal 12 aa]	0.696 ± 0.031	0.7008 ± 0.0064
NIHQTDYIYARL [BUD16 C-terminal 12 aa]	0.798 ± 0.031	0.708 ± 0.12
NILKVEKRAVLE [PMT1 C-terminal 12 aa]	0.684 ± 0.013	0.659 ± 0.02
NKEYWMKHKKPQ [PDE2 C-terminal 12 aa]	0.688 ± 0.0074	0.762 ± 0.013
NKRDKRPANFTR [TSC11 C-terminal 12 aa]	0.7063 ± 0.0042	0.692 ± 0.018
NKVEENLEGLYL [RPT2 C-terminal 12 aa]	0.6934 ± 0.0063	0.671 ± 0.015
NLSEAIHDNNGS [NNK1 C-terminal 12 aa]	0.717 ± 0.019	0.7091 ± 0.00097
NNVPPIHPSLLH [NGR1 C-terminal 12 aa]	0.7115 ± 0.0066	0.695 ± 0.017
NPSILGDFTRED [RTR1 C-terminal 12 aa]	0.663 ± 0.015	0.715 ± 0.02
NRHSYCFSNLAP [YOL085W-A C-terminal 12 aa]	0.739 ± 0.0025	0.691 ± 0.023
NRIVSLKDATSK [GLN4 C-terminal 12 aa]	0.689 ± 0.021	0.685 ± 0.025
NSFELNDFFITS [HAC1 C-terminal 12 aa]	0.7145 ± 0.0011	0.74 ± 0.031
NSLIFDAFNQIR [CDH1 C-terminal 12 aa]	0.732 ± 0.029	0.736 ± 0.054
NTSRIAKFFNRR [SEC15 C-terminal 12 aa]	0.702 ± 0.031	0.70527 ± 7.1e-05
NYAPHLSDATTS [MAC1 C-terminal 12 aa]	0.694 ± 0.013	0.7064 ± 0.0029
PAAKGKNLSFKR [RRP6 C-terminal 12 aa]	0.7188 ± 0.0035	0.709 ± 0.015
PADIDKYIIQRK [FMP46 C-terminal 12 aa]	0.7015 ± 0.0048	0.672 ± 0.029

Sequence	protein stability index [1]	protein stability index (genetic background: wild type)
PEDCKDDKYFVN [LCB2 C-terminal 12 aa]	0.6832 ± 0.0068	0.685 ± 0.04
PFKERAVFLLVL [YDR524W-C C-terminal 12 aa]	0.523 ± 0.016	0.361 ± 0.0078
PGVDVEVVVASN [RPS20 C-terminal 12 aa]	0.669 ± 0.0061	0.702 ± 0.038
PIAAIKEILDQV [DSF1 C-terminal 12 aa]	0.666 ± 0.0092	0.639 ± 0.03
PIIKEILQEYES [DNA2 C-terminal 12 aa]	0.6914 ± 0.0039	0.729 ± 0.013
PIKLKSDEEMII [YFL040W C-terminal 12 aa]	0.707 ± 0.025	0.6724 ± 0.0042
PILCTSEDFMGW [RGP1 C-terminal 12 aa]	0.709 ± 0.0088	0.732 ± 0.049
PKWTDCEGDLTT [DET1 C-terminal 12 aa]	0.712 ± 0.011	0.7387 ± 0.0071
PLKDLDPNAFRG [YOX1 C-terminal 12 aa]	0.6861 ± 0.006	0.692 ± 0.021
PLNDQVCPNSPL [YLR154W-F C-terminal 12 aa]	0.7273 ± 0.0053	0.694 ± 0.033
PLYSMVAGENSL [SPO23 C-terminal 12 aa]	0.678 ± 0.021	0.688 ± 0.023
PMIENLRFPNAR [YEH2 C-terminal 12 aa]	0.688 ± 0.023	0.7039 ± 0.0046
PMIKRQCEIIQF [TIP41 C-terminal 12 aa]	0.645 ± 0.029	0.676 ± 0.0097
PPAGIPPPPPLP [PAN1 C-terminal 12 aa]	0.719 ± 0.0093	0.711 ± 0.025
PPSDPSSIKIRN [KIN28 C-terminal 12 aa]	0.71109 ± 0.00022	0.729 ± 0.0076
PQENHDNKEEQS [HEK2 C-terminal 12 aa]	0.676 ± 0.019	0.688 ± 0.033
PQGAGRGRGMPM [CCT7 C-terminal 12 aa]	0.69 ± 0.0089	0.678 ± 0.034
PQMDDHTVISEI [MLO127 C-terminal 12 aa]	0.745 ± 0.029	0.6854 ± 0.006
PRDEQDSRKRNR [IBD2 C-terminal 12 aa]	0.699 ± 0.0085	0.7315 ± 0.0047
PREILLRLMNDK [PRP6 C-terminal 12 aa]	0.726 ± 0.024	0.704 ± 0.096
